# Measurements reported in patent US8808698B2, “Methods for inhibition of lymphangiogenesis and tumor metastasis” (The Regents of the University of California, priority 2006, dated 2014).
# “Also recorded” adds a separate entry of the source.
# B1: VEGF-C: lymphangiogenesis-promoting growth factor (R&D Systems) used as stimulus (protein, UniProt P49767 112-227, looked up)
# Vascular endothelial growth …: AHYNTEILKSIDNEWRKTQCMPREVCIDVGKEFGVATNTFFKPPCVSVYRCGGCCNSEGLQCMNTSTSYLSKTLFEITVPLSQGPKPVTISFANHTSCRCMSKLDVYRQVHSIIRR
# Key:
# lymphatic vessels = assay: Murine lymphangiogenesis and angiogenesis assay in growth factor MATRIGEL plugs; format: in vivo; conditions: mice, 400 ng growth factor
# Experimental: (§1) Lymphangiogenesis and angiogenesis assays in MATRIGEL were performed as described (Eliceiri et al, 1999, Mol. Cell 4:915) by injecting subcutaneously into wild-type C57B1/6 mice (n=5) 400 μL of cold MATRIGEL containing 400 ng of bFGF, VEGF-A, or VEGF-C (R&D Systems, Minneapolis, Minn.). Mice were then injected twice at day1 and day3 with 200 μl of blocking anti-α4β1 (PS2) or anti-α5β1 (5H10) antibodies, or isotype control antibody. After 7 days, MATRIGEL plugs were removed, embedded in OCT, frozen and sectioned. Thin sections (5 μm) were immunostained with anti-CD31 antibodies.
# For quantification, vessel numbers, tumor foci or pixel number in 10 microscopic fields per cryosection (per animal) were quantified and the mean number of vessels+/−s.e.m. for the entire treatment group was determined.
# lymph nodes [1] = assay: Lymph node lymphangiogenesis proximal to implanted VEGF-C MATRIGEL; format: in vivo, mice
# Experimental: as §1
# (§2) C57BL/6 mice were injected subcutaneously with 350 μl of ice-cold saline or VEGF-C-containing Matrigel (1 μg/ml) proximal to the inguinal lymph node. In parallel, 5×10^5 LLC cells were injected dorsally near the inguinal or brachial lymph nodes. Mice were sacrificed after 1, 7 and 14 days. Mice with stimulated inguinal nodes were also sacrificed after 21 days. Inguinal, brachial and mesenteric lymph nodes were removed and embedded in OCT for cryosectioning and immunohistochemistry.
# RFP-LLC cells = assay: Experimental footpad injection metastasis study (RFP-LLC); format: in vivo, mice
# Experimental: Inguinal lymph node lymphangiogenesis was stimulated by injecting mice intradermally above the left inguinal lymph node with 50 μl of saline or VEGF-C (200 ng per mice) every day for 7 days. Mice were inoculated with 10^6 RFP-LLC cells in a volume of 150 μl in the left footpad. Twenty four hours later, mice were sacrificed. Inguinal, brachial and mesenteric lymph nodes were removed and embedded in OCT for cryosectioning and immunofluorescence. RFP-tumor cell and Lyve-1+pixels were quantified on 5 different sections per lymph node.
# lymph nodes [2] = assay: Systemic or local VEGF-C injections in normal mice, lymph node lymphangiogenesis; format: in vivo
# Lewis lung carcinoma = assay: Local VEGF-C stimulation of lymph nodes in LLC tumor-bearing mice; format: in vivo
# Experimental: as §2
# LLC cells = assay: Transwell migration of LLC cells; format: cell-based, murine; conditions: 10, 100 or 500 ng/ml
# Experimental: FIG. 29. Analysis of LLC cell expression of integrin α4 and VEGF-R3. A) Expression of VEGF-R3, integrins α5β1 and α4β1 (black lines) on LLC cells was evaluated by flow cytometry. Grey lines depict binding of isotype matched control IgG. While 100% of cells express integrin α5β1, none express α4β1 or VEGF-R3. B) Transwell migration of LLC cells in the presence or absence of serum or VEGF-C at 10, 100 or 500 ng/ml.
Molecule,invasion of growth factor saturated MATRIGEL by new lymphatic vessels (lymphatic vessels),lymph node lymphatic vessel density / lymphangiogenesis (lymph nodes [1]; VEGF-C stimulated lymph nodes),lymph node size (lymph nodes [1]; lymph nodes proximal to implanted MATRIGEL containing VEGF-C),"tumor cell retention in the stimulated inguinal lymph node (RFP-LLC cells; RFP-LLC into footpad, 24 h)","tumor cell retention in unstimulated brachial or mesenteric lymph nodes (RFP-LLC cells; RFP-LLC into footpad, 24 h)","lymphangiogenesis in stimulated inguinal lymph node (RFP-LLC cells; intradermal injections for 7 days, non-tumor bearing mice, versus saline)","lymph node lymphangiogenesis after local injections proximal to a single lymph node (lymph nodes [2]; normal mice, local)","lymph node lymphangiogenesis after systemic injections (lymph nodes [2]; normal mice, systemic)",blood vessels within lymph nodes (CD31+ pixels/field) (lymph nodes [2]; versus saline),"lymphatic vessel density in draining (inguinal) lymph node (Lewis lung carcinoma; local injection, versus saline)",lymphangiogenesis and metastasis to other lymph nodes (Lewis lung carcinoma; local stimulation of inguinal node),"primary tumor growth (tumor volume) (Lewis lung carcinoma; local stimulation of inguinal node, after 21 days)","time at which tumor metastases were induced (Lewis lung carcinoma; local stimulation of inguinal node, 21 days for saline treated animals)",lymphangiogenesis in stimulated distant (brachial) lymph node (Lewis lung carcinoma; stimulation of brachial node),metastasis to stimulated distant (brachial) lymph node (Lewis lung carcinoma; stimulation of brachial node),rate of lymphangiogenesis or metastasis to inguinal or mesenteric nodes (Lewis lung carcinoma; stimulation of brachial node),LLC cell migration in response to growth factor (LLC cells)
bFGF: angiogenic growth factor (R&D Systems) [reference compound],new lymphatic vessels invade,,,,,,,,,,,,,,,,
B1,new lymphatic vessels invade,significant increase,expanded dramatically in size,strongly enhanced,not and No statistical difference,significantly induced,specifically affected this and not other nodes,Widespread lymph node lymphangiogenesis,no significant effect; also recorded: No statistical difference,significantly increased,no effect,no effect; also recorded: No statistical difference,≤ 14 days,selectively enhanced,accelerated metastasis by one week,without affecting,do not migrate
